Assay [1] deals with Ly49C natural killer domain (NKD), high-affinity mutant (V141K, S171G, E193G, R223K) (murine). The assay can be described thus: ITC.
Assay [2] has the same target. The assay can be described thus: AUC; sedimentation velocity, 20 °C, absorbance optics, 40,000 rpm; 4.2 μM Ly49C NKD, 3.7 μM peptide/MHC complex, and a mixture of the two; 10 mM HEPES pH 7.4, 150 mM NaCl, 3 mM EDTA, 0.005% surfactant P20.
Assay [3] concerns the target H-2K^b (heavy chain with murine β2-microglobulin) (mouse | murine).

In assay [1], “H-2K^b in complex with the ovalbumin peptide (OVA; SIINFEKL) (from UniProt P01887) (peptide-MHC)” returned a Kd of 1.9 µM, a dH of 2 kcal/mol and a stoichiometry N of 1. Take “H-2K^b presenting the MMTV gp70 peptide (MMTV; ANYDFICV) (from UniProt P01887 21-119) (peptide-MHC)”: in assay [1], the Kd came out at 8 µM, the dH was 2.3 kcal/mol and the stoichiometry N is 1. For the substance “Ly49C natural killer domain (NKD), high-affinity mutant (V141K, S171G, E193G, R223K) (domain or fragment)”, the stoichiometry N in assay [2] came to 2.

In the case of MMTV gp70 peptide (MMTV; ANYDFICV), the apparent Tm of the peptide/H-2K^b complex by differential scanning fluorimetry in assay [3] came to 54 °C.

Turning to ovalbumin peptide (OVA; SIINFEKL), the apparent Tm of the peptide/H-2K^b complex by differential scanning fluorimetry in assay [3] amounted to 58 °C.

Values taken from publication PMC8138769.
